Test results published in patent US20260266848A1, “COMPOSITIONS AND METHODS FOR DIAGNOSING AND TREATING DYSTONIA” (Duke University, priority 2023, published 2026).

System: DYT1 patient plasma derived EVs
Assay: Plasma-derived EV proteomics (ExoQuick ULTRA, DIA LC/MS/MS), DYT1 vs Healthy Controls
Design: species or system human
Conditions: Hs. Plasma EVs (DYT1/WT); significance of genotype difference
Outline: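 Plasma EVs enriched with ExoQuick ULTRA; 500 ng per sample run on EvoSep One UPLC (SPD30 gradient, ~5–30% acetonitrile/0.1% formic acid, 50 C) coupled to Orbitrap Astral. DIA mode: full MS r=240,000, m/z 380-980; 4 m/z fixed windows, HCD 27%.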

Row | Molecule | -LogP
1 | PITPNB (protein, UniProt P48739 1-271, looked up) Phosphatidylinositol transfer …: MVLIKEFRVVLPCSVQEYQVGQLYSVAEASKNETGGGEGIEVLKNEPYEKDGEKGQYTHKIYHLKSKVPAFVRMIAPEGSLVFHEKAWNAYPYCRTIVTNEYMKDDFFIKIETWHKPDLGTLENVHGLDPNTWKTVEIVHIDIADRSQVEPADYKADEDPALFQSVKTKRGPLGPNWKKELANSPDCPQMCAYKLVTIKFKWWGLQSKVENFIQKQEKRIFTNFHRQLFCWIDKWIDLTMEDIRRMEDETQKELETMRKRGSVRGTSAADV | 1.575
2 | RBM3 (protein, UniProt P98179 1-157, looked up) RNA-binding protein 3: MSSEEGKLFVGGLNFNTDEQALEDHFSSFGPISEVVVVKDRETQRSRGFGFITFTNPEHASVAMRAMNGESLDGRQIRVDHAGKSARGTRGGGFGAHGRGRSYSRGGGDQGYGSGRYYDSRPGGYGYGYGRSRDYNGRNQGGYDRYSGGNYRDNYDN | 2.179
3 | ANO6 (protein, UniProt Q4KMQ2 1-910, looked up) Anoctamin-6: MKKMSRNVLLQMEEEEDDDDGDIVLENLGQTIVPDLGSLESQHDFRTPEFEEFNGKPDSLFFNDGQRRIDFVLVYEDESRKETNKKGTNEKQRRKRQAYESNLICHGLQLEATRSVLDDKLVFVKVHAPWEVLCTYAEIMHIKLPLKPNDLKNRSSAFGTLNWFTKVLSVDESIIKPEQEFFTAPFEKNRMNDFYIVDRDAFFNPATRSRIVYFILSRVKYQVINNVSKFGINRLVNSGIYKAAFPLHDCKFRRQSEDPSCPNERYLLYREWAHPRSIYKKQPLDLIRKYYGEKIGIYFAWLGYYTQMLLLAAVVGVACFLYGYLNQDNCTWSKEVCHPDIGGKIIMCPQCDRLCPFWKLNITCESSKKLCIFDSFGTLVFAVFMGVWVTLFLEFWKRRQAELEYEWDTVELQQEEQARPEYEARCTHVVINEITQEEERIPFTAWGKCIRITLCASAVFFWILLIIASVIGIIVYRLSVFIVFSAKLPKNINGTDPIQKYLTPQTATSITASIISFIIIMILNTIYEKVAIMITNFELPRTQTDYENSLTMKMFLFQFVNYYSSCFYIAFFKGKFVGYPGDPVYWLGKYRNEECDPGGCLLELTTQLTIIMGGKAIWNNIQEVLLPWIMNLIGRFHRVSGSEKITPRWEQDYHLQPMGKLGLFYEYLEMIIQFGFVTLFVASFPLAPLLALVNNILEIRVDAWKLTTQFRRLVPEKAQDIGAWQPIMQGIAILAVVTNAMIIAFTSDMIPRLVYYWSFSVPPYGDHTSYTMEGYINNTLSIFKVADFKNKSKGNPYSDLGNHTTCRYRDFRYPPGHPQEYKHNIYYWHVIAAKLAFIIVMEHVIYSVKFFISYAIPDVSKRTKSKIQREKYLTQKLLHENHLKDMTKNMGVIAERMIEAVDNNLRPKSE | 1.411
4 | SEC31A (protein, UniProt O94979 1-1220, looked up) Protein transport protein …: MKLKEVDRTAMQAWSPAQNHPIYLATGTSAQQLDATFSTNASLEIFELDLSDPSLDMKSCATFSSSHRYHKLIWGPYKMDSKGDVSGVLIAGGENGNIILYDPSKIIAGDKEVVIAQNDKHTGPVRALDVNIFQTNLVASGANESEIYIWDLNNFATPMTPGAKTQPPEDISCIAWNRQVQHILASASPSGRATVWDLRKNEPIIKVSDHSNRMHCSGLAWHPDVATQMVLASEDDRLPVIQMWDLRFASSPLRVLENHARGILAIAWSMADPELLLSCGKDAKILCSNPNTGEVLYELPTNTQWCFDIQWCPRNPAVLSAASFDGRISVYSIMGGSTDGLRQKQVDKLSSSFGNLDPFGTGQPLPPLQIPQQTAQHSIVLPLKKPPKWIRRPVGASFSFGGKLVTFENVRMPSHQGAEQQQQQHHVFISQVVTEKEFLSRSDQLQQAVQSQGFINYCQKKIDASQTEFEKNVWSFLKVNFEDDSRGKYLELLGYRKEDLGKKIALALNKVDGANVALKDSDQVAQSDGEESPAAEEQLLGEHIKEEKEESEFLPSSGGTFNISVSGDIDGLITQALLTGNFESAVDLCLHDNRMADAIILAIAGGQELLARTQKKYFAKSQSKITRLITAVVMKNWKEIVESCDLKNWREALAAVLTYAKPDEFSALCDLLGTRLENEGDSLLQTQACLCYICAGNVEKLVACWTKAQDGSHPLSLQDLIEKVVILRKAVQLTQAMDTSTVGVLLAAKMSQYANLLAAQGSIAAALAFLPDNTNQPNIMQLRDRLCRAQGEPVAGHESPKIPYEKQQLPKGRPGPVAGHHQMPRVQTQQYYPHGENPPPPGFIMHGNVNPNAAGQLPTSPGHMHTQVPPYPQPQPYQPAQPYPFGTGGSAMYRPQQPVAPPTSNAYPNTPYISSASSYTGQSQLYAAQHQASSPTSSPATSFPPPPSSGASFQHGGPGAPPSSSAYALPPGTTGTLPAASELPASQRTGPQNGWNDPPALNRVPKKKKMPENFMPPVPITSPIMNPLGDPQSQMLQQQPSAPVPLSSQSSFPQPHLPGGQPFHGVQQPLGQTGMPPSFSKPNIEGAPGAPIGNTFQHVQSLPTKKITKKPIPDEHLILKTTFEDLIQRCLSSATDPQTKRKLDDASKRLEFLYDKLREQTLSPTITSGLHNIARSIETRNYSEGLTMHTHIVSTSNFSETSAFMPVLKVVLTQANKLGV | 1.85
